In patent publication US8450464 (Bristol-Myers Squibb, dated 2013):

Tests used:
[1] = molecular target: T1, human CXCR4 (human, UniProt P61073 1-352); assay: competition flow cytometry on CEM cells: unlabeled antibody titrated against a constant concentration of FITC-labeled F9, fluorescent geometric mean; unit from the axis 'Ab Concentration in nM'
[2] = molecular target: T1, human CXCR4; assay: cell-based or functional assay
[3] = molecular target: T1, human CXCR4; assay: flow cytometry on CEM cells, FITC anti-human IgG detection
Experimental: (§1) The antibodies were then mixed with CEM cells and allowed to bind before being detected with a FITC-conjugated anti-human IgG secondary antibody. The cells were then analyzed by fluorescent cytometry.

[4] = molecular target: T1, human CXCR4; assay: radioligand competition on CEM cells; competitor 100 pM 125I-SDF-1
Experimental: The anti-CXCR4 antibodies were serially diluted 1:3 to yield a range of concentrations from 300 nM to 137 pM. […] An irrelevant antibody of the same isotype was used as a negative control.

[5] = molecular target: T1, human CXCR4; assay: flow cytometry titration on CEM cells (native human CXCR4), FITC anti-human IgG secondary, MFI; unit from the axis 'Conc in nM'
Experimental: as §1

[6] = molecular target: T1, human CXCR4; assay: flow cytometry titration on CEM cells (native human CXCR4), FITC anti-human IgG secondary, MFI; unit from the axis 'Conc in nM'; the curve is still rising at the highest concentration, no upper plateau
Experimental: as §1

[7] = molecular target: T1, human CXCR4; assay: competition flow cytometry on CEM cells: unlabeled antibody titrated against a constant concentration of FITC-labeled F9, fluorescent geometric mean; unit from the axis 'Ab Concentration in nM'; the fitted value lies above the highest concentration shown (about 300 nM), inhibition is only partial
Experimental: To determine the ability of a panel of anti-CXCR4 antibodies to compete for binding to CXCR4, competition studies were performed. […] The mixture of antibodies was then added to CEM cells and allowed to bind.

T1 sequence (P61073 whole entry): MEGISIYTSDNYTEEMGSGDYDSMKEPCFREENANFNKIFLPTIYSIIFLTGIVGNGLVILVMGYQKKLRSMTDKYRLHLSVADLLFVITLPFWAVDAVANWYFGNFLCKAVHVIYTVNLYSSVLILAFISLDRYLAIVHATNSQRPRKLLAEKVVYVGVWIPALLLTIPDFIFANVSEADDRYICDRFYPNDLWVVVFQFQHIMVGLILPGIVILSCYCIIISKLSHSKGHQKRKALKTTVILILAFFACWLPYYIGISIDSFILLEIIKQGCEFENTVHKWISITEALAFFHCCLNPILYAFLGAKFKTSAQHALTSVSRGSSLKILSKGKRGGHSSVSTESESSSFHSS

EC50 [1] [nM] | EC50 for inhibition of SDF-1-induced calcium flux in CEM cells [2] [nM] | EC50 [3] [nM] | EC50 [4] [nM] | EC50 [5] [nM] | EC50 [6] [nM] | EC50 [7] [nM] | Molecule
102 | – | – | – | – | – | – | murine monoclonal anti-CXCR4 antibody 12G5
59.2 | 0.57 | 80 | 28.6 | 79.9 | – | – | anti-CXCR4 human monoclonal antibody D1 (antibody, V domains shown, Tested as full-length antibody) VH: EVQLVQSGGGLVQPGGSLRLSCAAAGFTFSSYSMNWVRQAPGKGLEWVSYISSRSKTIYYADSVKGRFTISRDNARNSLYLQMNSLRDEDTAVYYCARDYGGQPPYYYYYGMDVWGQGTTVTVSS VL: VIWVTQSPSSLSASVGDRVTITCRTSQGISSWLAWYQQKPEKAPELLIYAASSLQSGVPSRFSGSGSGTDFTLTISSLQPEDFATYYCQQYNSYPRTFGQGTKVEIK
– | – | 290 | – | – | 290 | 469 | anti-CXCR4 human monoclonal antibody E2 (antibody, V domains shown, Tested as full-length antibody) VH: EVQLVQSGGGLVQPGGSLRLSCAAAGFTFSSYSMNWVRQAPGKGLEWVSYISSRSRTIYYADSVKGRFTISRDNAKNSLYLQMNSLRDEDTAVYYCARDYGGQPPYHYYYGMDVWGQGTTVTVSS VL: EIVLTQSPSSLSASVGDRVTITCRASQGISNWLAWYQQKPEKAPKSLIYAASSLQSGVPSRFSGSGSGTDFTLTISSLQPEDFATYYCQQYNSYPRTFGQGTKVEIK
